# Reference: US20160024208A1 (Regeneron, published 2016)
# T1: N-Term Biotin Nav1.7 (3-1) peptide, mouse (mouse, not fully specified; N-terminal biotin attached via a G4S linker)
# T1 construct: Synthetic peptide; also called Mouse Nav1.7 3-1 N-term biotin
# T1 peptide: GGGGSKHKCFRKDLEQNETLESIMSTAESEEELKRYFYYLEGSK
# T2: Native Nav1.7 (3-1) peptide, rat (rat)
# T2 construct: Synthetic peptide; also called Rat Nav1.7 3-1 native
# T2 peptide: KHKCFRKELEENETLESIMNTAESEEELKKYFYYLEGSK
# T3: Native Nav1.7 (3-1) peptide, human (human)
# T3 construct: Synthetic peptide (Celtek), unbiotinylated; also called Human Nav1.7 3-1 native; Nav1.7 3-1 native peptide
# T3 peptide: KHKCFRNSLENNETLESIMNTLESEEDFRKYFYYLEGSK
# T4: N-Term Biotin Nav1.7 (3-1) peptide, mulatta (mulatta (monkey), not fully specified; N-terminal biotin attached via a G4S linker)
# T4 construct: Synthetic peptide; also called Mulatta Nav1.7 3-1 N-term biotin; monkey
# T4 peptide: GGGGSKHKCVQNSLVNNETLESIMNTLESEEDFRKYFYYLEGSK
# T5: C-term Biotin Nav1.7 (3-1) peptide, human (human, not fully specified; C-terminal biotin attached via a G4S linker)
# T5 construct: Synthetic peptide; also called Human Nav1.7 3-1 C-term biotin
# T5 peptide: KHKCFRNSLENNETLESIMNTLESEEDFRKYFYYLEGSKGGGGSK
# T6: N-Term Biotin-Nav1.7 (3-1) peptide, human (human, not fully specified; N-terminal biotin attached via a G4S linker)
# T6 construct: ELISA peptide
# T6 peptide: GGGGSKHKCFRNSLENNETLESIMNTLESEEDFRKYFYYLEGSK
# Experiments:
# [1] = target: T1, N-Term Biotin Nav1.7 (3-1) peptide, …; assay: SPR, captured antibody, peptide analyte
# Experimental: (§1) The binding affinities of anti-Naᵥ 1.7 antibodies to Naᵥ 1.7 loop peptides were determined by Biacore. For monovalent kinetic experiments, antibodies were captured through the Fc region via a goat anti-Fc-coupled biosensor surface, and the peptides (as analyte) were injected over this captured antibody surface. For bivalent (avidity-driven) kinetic experiments, biotinylated peptides corresponding to the Naᵥ 1.7 3-1, 3-3, or paddle loop sequences were captured on a NeutrAvidin sensor surface, and anti-Naᵥ 1.7 antibodies (as analyte) were injected over this surface. Following the capture step, each analyte was individually injected at several concentrations over its respective capture surface, and changes in bound surface units (RU) were monitored. The dissociation rate is independent of the concentration of analyte used in the experiment, and the dissociation rate constant (kd) was determined from the change in antibody-bound analyte RU over time. The Biacore kinetic data were obtained using a double referencing procedure. The double referencing was conducted by first subtracting any interaction of the analyte over the reference surface (i.e., the anti-Fc coupled surface alone or the NeutrAvidin surface alone), thereby correcting for nonspecific binding to capture surface and for refractive index changes. Control buffer injections (no analyte) over the antibody- or peptide-captured surfaces were also performed to allow subtraction of RU signal changes resulting from the natural dissociation of captured binding partner from the sensor surface. The kinetic parameters were obtained by globally fitting the data for all concentrations tested for a given peptide or antibody to a 1:1 binding model using Biacore T100 Evaluation Software version 2.0.2. The KD was calculated as the dissociation rate constant divided by the association rate constant (KD=kd/kₐ). The dissociative half-life (t_{1/2}) was calculated from the dissociation rate constant (t_{1/2}=In2/kd).
# [2] = target: T2, Native Nav1.7 (3-1) peptide, rat; assay: SPR, captured antibody, peptide analyte
# Experimental: as §1
# [3] = target: full-length human Nav1.7 fused at its N-terminus to GFP, expressed in HEK293 cells (human, UniProt Q15858 1-1988); assay: cell-based or functional assay
# [4] = target: T3, Native Nav1.7 (3-1) peptide, human; assay: SPR, captured antibody, peptide analyte
# Experimental: as §1
# [5] = target: T4, N-Term Biotin Nav1.7 (3-1) peptide, …; assay: SPR, captured antibody, peptide analyte
# Experimental: as §1
# [6] = target: T5, C-term Biotin Nav1.7 (3-1) peptide, …; assay: SPR, captured biotin-peptide, antibody analyte
# Experimental: as §1
# [7] = target: T4, N-Term Biotin Nav1.7 (3-1) peptide, …; assay: ELISA on coated peptide, antibody 1 ug/ml, OD450 grade
# Experimental: (§2) Anti-Naᵥ 1.7 antibodies were tested for their ability to bind to the Naᵥ 1.7 peptides. The various peptides were coated overnight onto 96-well Nunc Immunosorp plates at a concentration of 4 μg/mL in PBS, followed by blocking for 1 hour in a suitable blocking agent. For biotinylated peptides, avidin was first coated on Nunc Immunosorp plates at 2 μg/mL in PBS overnight, followed by blocking as described, and the plate was then coated with biotinylated peptides at a concentration of 0.4 μg/mL and incubated for 1 hour at room temperature. Purified anti-Naᵥ 1.7 antibodies were diluted to a final concentration of 0.1 μg/mL and 1.0 μg/mL and added to the wells of the coated microtiter plates followed by incubation for 1 hour at room temperature. Bound antibodies were detected with horseradish peroxidase (HRP) conjugated anti-mouse or anti-human IgG (Jackson Immuno Research Lab, West Grove, Pa.) depending on the antibody species and developed by colorimetric response using tetramethylbenzidine (TMB) substrate (BD Biosciences). Absorbance was read at OD₄₅₀ on a plate reader for 0.1 second.
# (§3) Values in Table 11 represent absolute binding ranges (at OD450) to plate-coated peptides for antibodies added at 1 μg/ml as follows: OD450<0.2: −; 0.2<OD450<1: +; 1<OD450<2: ++; 2<OD450<4: +++; NT: Not Tested.
# [8] = target: T6, N-Term Biotin-Nav1.7 (3-1) peptide, …; assay: as above
# Experimental: as §2, §3
# [9] = target: T2, Native Nav1.7 (3-1) peptide, rat; assay: as above
# Experimental: as §2, §3
binding result [1],binding result [2],"Current blocking (Average % inhibition), IonWorks Quattro, 223 nM antibody [3]",Kd [4],t1/2 [4],Kd [5],t1/2 [5],Kd [2],t1/2 [2],Kd [6],t1/2 [6],OD450 [7],OD450 [8],Kd [1],t1/2 [1],OD450 [9],Binder
no binding,no binding,,,,,,,,,,,,,,,"H1H1025B (antibody, V domains shown, Fully human antibody; 722/724 at r244); the full pair is used) VH: QVQLVESGGGVVQPGRSLRLSCAASGFTFSNYGMHWVRQAPGKGLEWVAAIWFDGSNKKYVDSVKGRFTISRDNSKNTLYLQMNSLRAGDTAVYYCTRDRSGSFDYWGQGTLVTVSS VL: DIQLTQSPSSLSASVGDRVTITCRASQGIRNDLGWYQQKPGKAPKRLIYAASSLQSGVPSRFSGSGSGTEFTLTISSLQPEDFATYYCLQHNSYPCTFGQGTKVEIKR"
no binding,,43.5%,2.73 nM,30.2 min,0.54 nM,111 min,77 nM,0.56 min,0.614 nM,118 min,,,,,,"H4H438B (antibody, V domains shown, Fully human antibody) VH: QVQLQQWGAGLLTPSETLSLTCAVYGGSFSGHYWSWIRQPPGKGLEWIGEINPRGSTNYKPSLKSRVTISVDTSKNQFSLNLRSVTAADTAMYYCAREGNLAARLWFFDLWGRGTLVTVSS VL: DIQMTQSPSSLSASVGDRGTITCRTSQSIRSYLNWYQQKPGKAPKLLIYAASSLQSGVPSRFSGSGSGTDFTLTISSLQPEDFATYFCQQSYSSPFTFGQGTKVEIKR"
no binding,,,6.58 nM,12.5 min,0.439 nM,128 min,178 nM,0.39 min,0.703 nM,86.9 min,,,,,,"H4H441B (antibody, V domains shown, Fully human antibody; the full pair is used) VH: QVQLQQWGAGLLKPSETLSLTCAVYGGSFSGHYWTWIRQPPGKGLEWIGEINHRGNTNYNPSLKSRATISVDTSKNQFSLKLSSVTAADTAVYYCAREGSLAARLWFFDLWGRDTPVTVSS VL: DIQMTQSPSSLSASVGDRGTVTCRASQNIRTYLNWYQQKPGKAPKLLIYAASSLQSGVPSRFSGSGSGTDFTLTISSLQPEDFATYYCQQSYGTPYTFGQGTKVEIKR"
,,34%,236 nM,0.16 min,42.6 nM,0.34 min,,,200 nM,0.3 min,,,,,,"H1H1068B (antibody, V domains shown, Fully human antibody; the full pair is used) VH: QVQLVQSGAEVKKPGASVKVSCKASGYTFTSYGVSWVRQAPGQGLEWMGWISAYNGNTNYAQKLQGRVTMTTDTSTSTAYMELTSLRSDDTAVYYCARNWGDYWGQGTLVTVSS VL: not shown"
no binding,no binding,31%,188 nM,0.8 min,29.3 nM,3.1 min,,,0.443 nM,73.2 min,,,,,,"H4H385B (antibody, V domains shown, Fully human antibody) VH: QVQLVESGGGVVQPGRSLRLSCAASGFTFSSYGMHWVRQAPGKGLEWVALISYVGSNKHYADSVKGRFTISRDNSKNTLYLQMNSLRAEDTAVYYCAKSRGYSYGLDYWGQGTLVTVSS VL: DIQMTQSPDSLAVSLGERATINCKSSQTVLHSSNNQNNLVWYQQKPGQPPKLLIYWASTRESGVPDRFSGSGSGTDFTLTISSLQAEDVAIYYCQQYYSTPYTFGQGTKLEIKR"
,,48%,,,,,,,,,2 to 4 od,2 to 4 od,,,,"H4H391B (antibody, V domains shown) VH: QVQLVQSGGGVVQPGRSLRLSCAASGFTFSSYGMHWVRQAPGKGLEWVAVISYEGSNKHYADSVKGRFTISRDNSKNTLYLQMNSLRAEDTAVFYCAQSRGYSYGLGYWGQGTLVTVSS VL: not shown"
,,,38.9 nM,3.3 min,13.1 nM,6 min,,,1.04 nM,92.9 min,2 to 4 od,2 to 4 od,,,,"H4H382B (antibody, V domains shown) VH: EVQLVQSGGGVVQPGRSLRLSCEASGFTFSSYGMHWVRQAPGKGLEWVAVISYDGSNKHYTDSVKGRFTISRDNSKNTLYLQMNSLRAEDTAVYFCAQSRGYSYGLGYWGQGTLVTVSS VL: DIQMTQSPDSLAVSLGERATINCKSSQSVLSSSNNENYLVWYQQKPGQPPKLLIYWASTREPGVPDRFSGGGSGTDFTLTISSLQAEDVAVYYCQQYHSIPYTFGQGTKVEIKR"
,,,,,,,127 nM,0.32 min,,,,,12 nM,964 min,2 to 4 od,"H4H368B (antibody, V domains shown) VH: EVQLVQSGGGVVQPGRSLRLSCAASGFTFSSYGMHWVRQAPGKGLEWVAVISYQESNKHYVDSVKGRFTISRDNSKNTLYLQMNSLRAEDTAVYYCAKSRGYSYGLGYWGQGTLVTVSS VL: not shown"
,,17.5%,21.4 nM,2.5 min,3.68 nM,4.7 min,107 nM,0.17 min,0.334 nM,114 min,,,8.98 nM,3.4 min,,"H4H434B (antibody, V domains shown, Fully human antibody) VH: QVQLVQSGGGLVQPGGSLRLSCAASGFTFSNYAMSWVRQAPGKGLEWVSAISGSGDNTYYADSVRGRFTISRDNSKNTLYLQMNSLRAEDTAIYYCAKDPHSSRWPGFFDLWGRGTLVTVSS VL: not shown"
,,,,,,,176 nM,0.48 min,,,,,,,1 to 2 od,"H4H443B (antibody, V domains shown) VH: QVQLVESGGGLVQPGRSLRLSCAASGFTFDDYAMHWVRQVPGKGLEWVSGINWNSGSIGYADSVKGRFTISRDNAKNSLFLQMNSLRAEDTALYYCAKDIEYYDILTGYYSYYIMDVWGQGTTVTVSS VL: DIQMTQSPSFLSASVGDRVTITCWASQGISSYLAWYQQKPGKAPKLLIYASSTLQSGVPSRFSGSGSGTEFTLTISSLQPEDFATYYCQQFNSYPPTFGQGTKVEIKR"
,no binding,57%,13.2 nM,20.7 min,2.5 nM,34 min,,,0.0252 nM,108 min,,,,,,"H4H395B (antibody, V domains shown, Fully human antibody; 685/687 at r237); the full pair is used; also called H4H395N) VH: EVQLVESGGGLVQPGGSLRLSCAASGFTFSSYGMSWVRQVPGKGLEWVSAISGSGGSTYYVDSVKGRFTISRDNFKNTLYLQMNSLRVEDTAVYYCAKDVGYCSTTSCRGDAFDVWGQGTMVTVSS VL: not shown"
